Numbering of substitutions follows the chain as printed. Values belong to the compound of their own block, whether it stands above or below them.
What was measured:
PtoCPNα [1] = molecular target: T1, PtoCPNα (Picrophilus oshimae, UniProt Q6L132, D139G); assay: ATP-dependent refolding of acid-denatured GFP; assay type: biochemical; settings: 1 mM ATP, 50 mM Tris-HCl pH 7.5, 25 mM MgCl2, 100 mM KCl, 50 °C (figure legend: 60 °C)
T1 construct: gene PTO0735; full length, untagged, pET23b in E. coli BL21(DE3); reassembled homo-oligomer (hexadecamer, 914 kDa); D139G from cloning; forward primer encodes MITGQTPILILKEGTERQ; locus assigned by printed order (other locus PTO1195)
T1 sequence (Q6L132 1-546 D139G): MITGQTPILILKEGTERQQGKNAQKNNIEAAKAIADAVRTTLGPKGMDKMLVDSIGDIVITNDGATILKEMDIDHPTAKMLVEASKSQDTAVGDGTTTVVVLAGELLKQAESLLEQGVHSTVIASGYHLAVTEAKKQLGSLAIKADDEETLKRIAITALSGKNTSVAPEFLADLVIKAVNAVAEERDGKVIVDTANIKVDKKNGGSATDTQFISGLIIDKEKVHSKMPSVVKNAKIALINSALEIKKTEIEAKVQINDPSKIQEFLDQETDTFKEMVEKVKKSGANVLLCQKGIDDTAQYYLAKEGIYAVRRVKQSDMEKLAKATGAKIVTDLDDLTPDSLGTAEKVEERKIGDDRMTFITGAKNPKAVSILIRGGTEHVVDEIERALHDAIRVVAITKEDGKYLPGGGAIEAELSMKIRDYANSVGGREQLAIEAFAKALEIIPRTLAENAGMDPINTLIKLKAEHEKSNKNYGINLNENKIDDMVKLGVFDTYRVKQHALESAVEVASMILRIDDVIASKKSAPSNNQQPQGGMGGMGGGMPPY

PtoCPNα [2] = molecular target: T2, PtoCPNα (Picrophilus oshimae, UniProt Q6L132, D139G/S260C/C290S); assay: fluorescence change of fluorescein on Cys260; assay type: binding; settings: 1 mM ATP, 50 nM chaperonin, 50 mM Tris-HCl pH 7.5, 25 mM MgCl2, 100 mM KCl, 60 °C; protein labelled with fluorescein 5-maleimide
T2 construct: gene PTO0735; full length, untagged, pET23b in E. coli BL21(DE3); reassembled homo-oligomer (hexadecamer, 914 kDa); D139G from cloning; forward primer encodes MITGQTPILILKEGTERQ; locus assigned by printed order (other locus PTO1195)
T2 sequence (Q6L132 1-546 D139G/S260C/C290S): T1 sequence (Q6L132 1-546 D139G) with S260C, C290S

[3] = molecular target: α type group II CPN of Picrophilus torridus (Picrophilus torridus); assay: SEC-MALS; WTC-100S5 column, 25 °C, 50 mM Tris-HCl pH 7.5, 25 mM MgCl2, 0.2 mM ATP, 300 mM (NH4)SO4, 1 mM DTT, 1.0 mL/min; purified oligomers
[4] = molecular target: Green fluorescent protein, acid-denatured [GFP: P42212]; assay: GFP releasing assay (recovery of GFP fluorescence, fit of two consecutive steps); acid-denatured GFP captured by 400 nM PtoCPNα at 60 °C for 5 min in HKM buffer with 1 mM DTT, then diluted 10-fold into the same buffer at 50 °C; k1 is the release of denatured GFP
[5] = molecular target: Green fluorescent protein, acid-denatured [GFP: P42212]; assay: GFP releasing assay (recovery of GFP fluorescence, fit of two consecutive steps); acid-denatured GFP captured by 400 nM PtoCPNα at 60 °C for 5 min in HKM buffer with 1 mM DTT, then diluted 10-fold into the same buffer at 30 °C; k1 is the release of denatured GFP
[6] = molecular target: β type group II CPN of Picrophilus torridus (Picrophilus torridus); assay: SEC-MALS; WTC-100S5 column, 25 °C, 50 mM Tris-HCl pH 7.5, 25 mM MgCl2, 0.2 mM ATP, 300 mM (NH4)SO4, 1 mM DTT, 1.0 mL/min; purified oligomers

Compound: Nc1ncnc2c1ncn2[C@@H]1O[C@H](COP(=O)(O)OP(=O)(O)OP(=O)(O)O)[C@@H](O)[C@H]1O [ATP]
ATP-dependent refolding of acid-denatured GFP (PtoCPNα [1]): enhances its refolding in an ATP‐dependent manner
% decrease in maximal fluorescence intensity (PtoCPNα [2]): ~ 15.5%

stoichiometry N [3]: 16
koff [4]: 0.118 s⁻¹
koff [5]: 0.478 s⁻¹
Compound: α type group II CPN of Picrophilus torridus (complex)

stoichiometry N [6]: 14
Compound: β type group II CPN of Picrophilus torridus (complex)

Reference: PMC4932455, “Characterization of group II chaperonins from an acidothermophilic archaeon Picrophilus torridus” (FEBS Open Bio, 2016)
